{
  "source": "patent US20130177570A1",
  "about": "(PURDUE RESEARCH FOUNDATION, published 2013)",
  "binders": {"B1": {"name": "m909 Fab (Fab, V domains shown)", "VH": "EVQLVQSGAEVKKPGASVKVSCKASGYTFTSYAMHWVRQAPGQRLEWMGWINAGNGNTKYSQKFQGRVTITRDTSASTAYMELSSLRSEDTAVYYCARDISYGSFDYWGQGTLVTVSS", "VL": "SSELTQDPAVSVALGQTVRITCQGDSLRSNYANWYQQKPGQAPVLVIYGQNNRPSGIPDRFSGSSSGNTASLTITGAQAADEADYYCDSRVSTGNHVVFGGGTKLTVLG", "notes": "Soluble Fab expressed in E. coli HB2151; The phagemid adds His6 and FLAG tags at the C-terminus of the Fab"}, "B2": {"name": "m923 (Fab, V domains shown)", "VH": "B1 VH", "VL": "SSELTQDPAVSVALGQTVRITCQGDNLRSYYASWYRQKSGQAPVLVIYGKNNRPSGIPDRFSGSSSGNTASLTITAAQAEDEADYYCHSRKSRGNHLLFGGGTKLTVLG", "notes": "Clone from the Fab phage library after light chain shuffling; also called clone m923"}},
  "key": {"[1]": {"target": "T1, recombinant human folate receptor beta (FRβ), residues 22 to 236 (human, UniProt P14207 22-236)", "T1 construct": "Produced in SF9 insect cells with baculovirus, then purified by nickel column and gel filtration; also called recombinant FRβ; FRβ protein", "T1 sequence (P14207 other isoform, or with tags, fused parts or gaps)": "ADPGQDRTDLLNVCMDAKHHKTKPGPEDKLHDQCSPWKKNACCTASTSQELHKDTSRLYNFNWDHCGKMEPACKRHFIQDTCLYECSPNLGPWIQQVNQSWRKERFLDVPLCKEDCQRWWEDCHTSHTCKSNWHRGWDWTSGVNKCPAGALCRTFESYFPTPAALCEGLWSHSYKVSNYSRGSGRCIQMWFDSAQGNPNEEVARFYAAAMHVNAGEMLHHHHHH", "test": "ELISA, recombinant FRβ coated, Fab detected with anti-FLAG-HRP", "method": "To characterize the m909 antibody, an ELISA was performed as follows. FRβ, diluted in PBS, was coated on half of the wells of a 96 well plate at 50 ng/well overnight at 4° C. Wells were blocked with 100 μl of 4% milk/PBS (MPBS) for 1 hr at 37° C. For Fab binding kinetics, Fab was titrated from 3000 nM to 0.038 nM (1:5 serial dilutions) then 50 μl of diluted Fab was added to duplicate wells. After 2 hr incubation at 37° C., the wells were washed four times with PBST (PBS+0.05% Tween 20). Bound Fab was detected by incubating with anti-FLAG-horseradish peroxidase (HRP) mAb (1:1000) (Sigma) for 1 hr at 37° C. Wells were washed again with PBST. The HRP substrate 2,2′-azino-bis(3-ethylbenzthiazoline-6-sulphonic acid) (ABTS) was added (50 μl/well), and the absorbance at 405 nm was determined. For ELISA with IgG, a goat anti-human Fc IgG conjugated with HRP was used at 1:1000. FIG. 3 is a graph depicting the binding of m909 IgG₁ to FRβ."}, "[2]": {"target": "T1, recombinant human folate receptor beta …", "test": "phage display panning and screening on coated FRβ protein", "method": "Purified FRβ was used for panning of a human naïve (not deliberately immunized) Fab phage library. Briefly, 2 μg of FRβ was coated on a Maxisorp plate, which was then incubated with library phage (˜10¹² pfu) for 2 hr. After extensively washing the wells with PBS+0.05% Tween 20 (PBST), phage were rescued by incubating with exponentially growing TG1 bacteria and helper phage. The panning procedure was repeated three more times with more stringent conditions in the latter two rounds, including decreased amounts of FRβ protein and additional washes with PBST. Three hundred colonies were picked from the last two rounds of panning and rescued with helper phage."}},
  "data": [
    {"binder": "B1", "values": [
      {"measurement": "EC50", "setting": "[1]", "value": 20, "unit": "nM"}
    ]},
    {"binder": "B2", "values": [
      {"measurement": "binding result", "setting": "[2]", "value": "binds"}
    ]}
  ]
}
